Values quoted from earlier work in patent publication US20060003347A1 (priority 2002, published 2006).

How the values were obtained:
[1] = pH 8.5
[2] = literature

Compound: CCOP(=O)(OCC)Oc1ccc([N+](=O)[O-])cc1 [paraoxon]
- Rate of base-catalysed hydrolysis [1]: 2.4e-07 s⁻¹

Compound: acetylcholinesterase
- kcat [2]: 14000 s⁻¹

Compound: catalase
- kcat [2]: 4e+07 s⁻¹
